For three substances, Kd results are on record in PMC8828746.

In this assay the target is Fc-tagged human angiotensin-converting enzyme 2 (hACE2) (human) (UniProt Q9BYF1). Put plainly: BLI.
Substance “6× His-tagged S1 protein of SARS-CoV-2 Delta (B.1.617.2) variant (domain or fragment)” had a Kd of 5.03 nM.

As for “6× His-tagged S1 protein of SARS-CoV-2 Kappa (B.1.617.1) variant (domain or fragment)”, the Kd turned out to be 4.85 nM.

The substance “6× His-tagged S1 protein of SARS-CoV-2 Omicron (B.1.1.529) variant (domain or fragment)” showed an equilibrium dissociation constant (Kd) of 7.4 nM.
